Numbered stars: 1 amine (or outer) side, 2 acyl side, 3 side chain; on linkers, the order of the positions; unused ones are H or OH. Square brackets hold non-standard residues; d marks the D form. Side chains are listed from the residue outwards. Ends that are not written are not given here. * marks the point of attachment. γGlu = O=C(O)[C@H](CCC(=O)[*:2])N[*:1]; Desaminohistidyl = O=C(CCc1c[nH]cn1)*; Palmitoyl = CCCCCCCCCCCCCCCC(=O)*; EC16 = not defined here; Aib = CC(C)(N)C(=O)O
T1: GIP receptor (UniProt P48546 22-466)
T1 sequence (looked up): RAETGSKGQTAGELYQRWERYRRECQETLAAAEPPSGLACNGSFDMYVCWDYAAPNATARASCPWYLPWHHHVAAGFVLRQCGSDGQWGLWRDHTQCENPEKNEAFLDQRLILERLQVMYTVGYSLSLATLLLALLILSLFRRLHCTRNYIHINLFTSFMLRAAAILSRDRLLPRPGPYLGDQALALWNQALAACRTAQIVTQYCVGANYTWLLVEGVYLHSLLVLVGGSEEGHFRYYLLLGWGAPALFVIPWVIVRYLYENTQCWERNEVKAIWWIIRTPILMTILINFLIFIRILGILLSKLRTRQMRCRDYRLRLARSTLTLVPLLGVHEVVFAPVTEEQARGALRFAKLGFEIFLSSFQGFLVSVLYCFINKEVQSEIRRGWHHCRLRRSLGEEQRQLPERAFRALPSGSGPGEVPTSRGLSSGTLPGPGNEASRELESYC

B1: peptide of SEQ ID NO: 61 (peptide)
peptide: HXQGTFTSDKSKYLDERAAQDFVQWLMDT
modifications: Aib at 2; Lys 10 acylated, printed K(γEyEC16); C-terminal amide
B2: peptide of SEQ ID NO: 19 (peptide)
peptide: H[dS]QGTFTSDK([γGlu-EC16])SKYLDERAAQDFVQWLLDGRG-NH2
modifications: reading uncertain; also: printed as HsQGTFTSDK(gammaGlu-EC16)SKYLDERAAQDFVQWLLDGRG-amide
B3: peptide of SEQ ID NO: 21 (peptide)
peptide: Ac-H[dS]QGTFTSDK([γGlu-Palmitoyl])SKYLDERAAQDFVQWLLDT-NH2
SMILES: CCCCCCCCCCCCCCCC(=O)N[C@@H](CCC(=O)NCCCC[C@H](NC(=O)[C@H](CC(=O)O)NC(=O)[C@H](CO)NC(=O)[C@@H](NC(=O)[C@H](Cc1ccccc1)NC(=O)[C@@H](NC(=O)CNC(=O)[C@H](CCC(N)=O)NC(=O)[C@@H](CO)NC(=O)[C@H](Cc1c[nH]cn1)NC(C)=O)[C@@H](C)O)[C@@H](C)O)C(=O)N[C@@H](CO)C(=O)N[C@@H](CCCCN)C(=O)N[C@@H](Cc1ccc(O)cc1)C(=O)N[C@@H](CC(C)C)C(=O)N[C@@H](CC(=O)O)C(=O)N[C@@H](CCC(=O)O)C(=O)N[C@@H](CCCNC(=N)N)C(=O)N[C@@H](C)C(=O)N[C@@H](C)C(=O)N[C@@H](CCC(N)=O)C(=O)N[C@@H](CC(=O)O)C(=O)N[C@@H](Cc1ccccc1)C(=O)N[C@H](C(=O)N[C@@H](CCC(N)=O)C(=O)N[C@@H](Cc1c[nH]c2ccccc12)C(=O)N[C@@H](CC(C)C)C(=O)N[C@@H](CC(C)C)C(=O)N[C@@H](CC(=O)O)C(=O)N[C@H](C(N)=O)[C@@H](C)O)C(C)C)C(=O)O
B4: peptide of SEQ ID NO: 20 (peptide)
peptide: [Desaminohistidyl][dS]QGTFTSDK([γGlu-Palmitoyl])SKYLDERAAQDFVQWLLDT-NH2
SMILES: CCCCCCCCCCCCCCCC(=O)N[C@@H](CCC(=O)NCCCC[C@H](NC(=O)[C@H](CC(=O)O)NC(=O)[C@H](CO)NC(=O)[C@@H](NC(=O)[C@H](Cc1ccccc1)NC(=O)[C@@H](NC(=O)CNC(=O)[C@H](CCC(N)=O)NC(=O)[C@@H](CO)NC(=O)CCc1c[nH]cn1)[C@@H](C)O)[C@@H](C)O)C(=O)N[C@@H](CO)C(=O)N[C@@H](CCCCN)C(=O)N[C@@H](Cc1ccc(O)cc1)C(=O)N[C@@H](CC(C)C)C(=O)N[C@@H](CC(=O)O)C(=O)N[C@@H](CCC(=O)O)C(=O)N[C@@H](CCCNC(=N)N)C(=O)N[C@@H](C)C(=O)N[C@@H](C)C(=O)N[C@@H](CCC(N)=O)C(=O)N[C@@H](CC(=O)O)C(=O)N[C@@H](Cc1ccccc1)C(=O)N[C@H](C(=O)N[C@@H](CCC(N)=O)C(=O)N[C@@H](Cc1c[nH]c2ccccc12)C(=O)N[C@@H](CC(C)C)C(=O)N[C@@H](CC(C)C)C(=O)N[C@@H](CC(=O)O)C(=O)N[C@H](C(N)=O)[C@@H](C)O)C(C)C)C(=O)O
B5: peptide of SEQ ID NO: 60 (peptide)
peptide: H[Aib]QGTFTSDK([γGlu-Palmitoyl])SKYLD[Aib]RAAQDFVQWLMKTK[dE]-OH

biological target: glucagon receptor (UniProt P47871 26-477, limits assumed); assay: cell-based or functional assay
Sequence (P47871 26-477 limits assumed): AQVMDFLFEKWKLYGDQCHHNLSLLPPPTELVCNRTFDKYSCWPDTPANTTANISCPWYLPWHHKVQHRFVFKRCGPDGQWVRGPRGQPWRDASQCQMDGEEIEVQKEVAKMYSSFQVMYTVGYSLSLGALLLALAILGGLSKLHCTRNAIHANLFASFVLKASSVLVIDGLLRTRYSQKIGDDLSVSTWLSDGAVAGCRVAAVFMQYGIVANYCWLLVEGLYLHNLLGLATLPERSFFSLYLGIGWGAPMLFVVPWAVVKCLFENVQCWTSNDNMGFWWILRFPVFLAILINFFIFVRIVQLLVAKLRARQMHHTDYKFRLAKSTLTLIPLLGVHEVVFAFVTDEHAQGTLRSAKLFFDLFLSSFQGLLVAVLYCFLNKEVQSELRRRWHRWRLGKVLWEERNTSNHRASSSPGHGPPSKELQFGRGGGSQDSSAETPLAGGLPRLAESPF

Binder	EC50 (nM) at glucagon receptor
B1	0.009 nM
B2	0.004 nM
B3	0.005 nM
B4	0.006 nM
B5	4.6 nM

biological target: GLP-1 receptor (UniProt P43220 24-463, limits assumed); assay: cell-based or functional assay

Binder	EC50 (nM) at GLP-1 receptor
B1	0.004 nM
B2	0.002 nM
B3	0.009 nM
B4	0.004 nM
B5	0.033 nM

biological target: T1, GIP receptor; assay: cell-based or functional assay

Binder	EC50 (nM) at GIP receptor
B1	0.676 nM
B2	0.812 nM
B3	4.5 nM
B4	1.38 nM
B5	147 nM

— patent US20140206607A1 (INDIANA UNIVERSITY RESEARCH AND TECHNOLOGY, published 2014)
